Measurements reported in patent US20220347236A1 (GL INNOVATION, published 2022).

B1: FcεRIαECD-Fc2ST (Fc fusion)
chain: VPQKPKVSLNPPWNRIFKGENVTLTCNGNNFFEVSSTKWFHNGSLSEETNSSLNIVNAKFEDSGEYKCQHQQVNESEPVYLEVFSDWLLLQASAEVVMEGQPLFLRCHGWRNWDVYKVIYYKDGEALKYWYENHNISITNATVEDSGTYYCTGKVWQLDYESEPLNITVIKAPREKYWLQRNTGRGGEEKKGSKEKEEQEERETKTPECPSHTQPLGVFLFPPKPKDTLMISRTPEVTCVVVDVSQEDPEVQFNWYVDGVEVHNAKTKPREEQFNSTYRVVSVLTVLHQDWLNGKEYKCKVSNKGLPSSIEKTISKAKGQPREPQVYTLPPSQEEMTKNQVSLTCLVKGFYPSDIAVEWESNGQPENNYKTTPPVLDSDGSFFLYSRLTVDKSRWQEGNVFSCSVMHEALHNHYTQKSLSLSLGK
modifications: sialic acid added (α-2,6-sialic acid transferase co-expressed)
notes: Homodimer; also called IgETRAP; FceR1αECD-Fc2ST
B2: FcεRIαECD-Fc2 (Fc fusion)
chain: B1 chain
notes: also called FcεRIα ECD fusion protein; polypeptide dimer
B3: FcεRIαECD-Fc3 (Fc fusion)
chain: VPQKPKVSLNPPWNRIFKGENVTLTCNGNNFFEVSSTKWFHNGSLSEETNSSLNIVNAKFEDSGEYKCQHQQVNESEPVYLEVFSDWLLLQASAEVVMEGQPLFLRCHGWRNWDVYKVIYYKDGEALKYWYENHNISITNATVEDSGTYYCTGKVWQLDYESEPLNITVIKAPREKYWLQAQPQAEGSLAKATTAPATTRNTGRGGEEKKGSKEKEEQEERETKTPECPSHTQPLGVFLFPPKPKDTLMISRTPEVTCVVVDVSQEDPEVQFNWYVDGVEVHNAKTKPREEQFNSTYRVVSVLTVLHQDWLNGKEYKCKVSNKGLPSSIEKTISKAKGQPREPQVYTLPPSQEEMTKNQVSLTCLVKGFYPSDIAVEWESNGQPENNYKTTPPVLDSDGSFFLYSRLTVDKSRWQEGNVFSCSVMHEALHNHYTQKSLSLSLGK
B4: FcεRIαECD-Fc3ST (Fc fusion)
chain: B3 chain
modifications: sialic acid added (α-2,6-sialic acid transferase co-expressed)
notes: Dimer; also called FcεRIαECD-Fc3 + a2,6-ST

What was measured:
human IgE [1] = biological target: T1, human IgE (human, UniProt P01854-1 1-428); assay: cell-based or functional assay
T1 sequence (P01854 other isoform, or with tags, fused parts or gaps): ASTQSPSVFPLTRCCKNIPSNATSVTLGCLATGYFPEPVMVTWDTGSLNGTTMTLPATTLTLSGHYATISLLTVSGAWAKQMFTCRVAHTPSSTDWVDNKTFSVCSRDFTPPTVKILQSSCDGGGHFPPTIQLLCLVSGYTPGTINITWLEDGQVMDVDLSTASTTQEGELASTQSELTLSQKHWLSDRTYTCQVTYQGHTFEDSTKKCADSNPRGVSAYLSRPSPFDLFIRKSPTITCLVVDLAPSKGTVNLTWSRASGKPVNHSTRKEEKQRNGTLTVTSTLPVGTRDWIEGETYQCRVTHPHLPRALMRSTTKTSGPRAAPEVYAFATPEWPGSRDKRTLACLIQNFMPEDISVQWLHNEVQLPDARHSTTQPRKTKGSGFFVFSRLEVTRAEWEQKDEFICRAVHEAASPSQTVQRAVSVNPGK

[2] = biological target: T2, mouse IgE (anti-dinitrophenyl IgE) (mouse, UniProt P06336 1-421); assay: cell-based or functional assay
T2 sequence (P06336 whole entry): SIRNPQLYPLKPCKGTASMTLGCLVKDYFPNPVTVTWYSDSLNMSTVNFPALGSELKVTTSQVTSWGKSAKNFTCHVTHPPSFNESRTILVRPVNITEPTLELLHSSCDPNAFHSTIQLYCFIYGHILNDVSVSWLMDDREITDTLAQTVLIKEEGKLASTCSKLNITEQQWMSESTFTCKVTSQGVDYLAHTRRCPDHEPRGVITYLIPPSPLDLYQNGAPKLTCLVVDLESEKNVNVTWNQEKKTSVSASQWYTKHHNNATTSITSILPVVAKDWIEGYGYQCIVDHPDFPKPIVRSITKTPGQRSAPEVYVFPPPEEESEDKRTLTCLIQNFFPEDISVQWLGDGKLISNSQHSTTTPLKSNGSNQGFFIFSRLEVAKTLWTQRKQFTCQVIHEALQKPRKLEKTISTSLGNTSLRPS

[3] = biological target: T2, mouse IgE (anti-dinitrophenyl IgE); assay: cell-based or functional assay; remark: listed apart in the source
human IgE [4] = biological target: T1, human IgE; assay: SPR (ProteOn XPR36), human IgE
human IgE [5] = biological target: T1, human IgE; assay: SPR (ProteOn XPR36), ratio of KD to that of omalizumab
Method: (§1) The experiments were conducted by identifying zero base using 25 mM NaOH as a regeneration buffer, and then repeating the above steps. Thereafter, a binding curve was identified using a protein binding analyzer (ProteOn XPR36, Bio-Rad Laboratories, Inc., USA).

human IgE [6] = biological target: T1, human IgE; assay: SPR (ProteOn XPR36), ratio of ka to that of omalizumab
Method: as §1

human IgE [7] = biological target: T1, human IgE; assay: SPR (ProteOn XPR36), ratio of kd to that of omalizumab
Method: as §1

human IgE [8] = biological target: T1, human IgE; assay: SPR (ProteOn XPR36), ratio of KD of omalizumab to KD of IgETRAP
Method: as §1

human IgE [9] = biological target: T1, human IgE; assay: SPR (ProteOn XPR36, GLC chip), IgE coated, protein flowed; KD = kd/ka
Method: as §1

human IgE [10] = biological target: T1, human IgE; assay: SPR (ProteOn XPR36, GLC chip), IgE coated, protein flowed at various concentrations
Method: as §1

human IgE [11] = biological target: T1, human IgE; assay: SPR kinetics on IgE (Table 3), omalizumab as reference; paragraph 125 ties the 69-fold end to FcεRIαECD-Fc2ST
Method: as §1

human IgE [12] = biological target: T1, human IgE; assay: SPR kinetics on IgE (Table 3), omalizumab as reference; paragraph 125 ties the 1.5-fold end to FceR1αECD-Fc2ST
Method: as §1

Binder	fold of KD against omalizumab (human IgE [5]) [fold]	fold of ka against omalizumab (human IgE [6]) [fold]	fold of kd against omalizumab (human IgE [7]) [fold]	Kd (human IgE [9]) [nM]	koff (human IgE [10]) [s⁻¹]	kon (human IgE [10]) [M⁻¹ s⁻¹]	also measured
B1	69	1.5	106	0.216	5.69e-05	264000	IC50 of mast cell inhibition (β-hexosaminidase release, human FcεRI-expressing mouse bone marrow-derived mast cells, human IgE 1 ug/mL) (human IgE [1]): ~0.0112 µg/mL; fold higher inhibitory ability on mast cell activity than Xolair (human IgE [1]): 58 fold; IC50 of inhibition of degranulation of mouse bone marrow-derived mast cells (β-hexosaminidase release) in the presence of 1 µg/ml mouse IgE [2]: 0.45 µg/mL; Average inhibition ratio (%) of mast cell degranulation at IgETRAP 0.016 ug/mL (0.11 nM; IgE/IgETRAP molar ratio 47.8), anti-DNP IgE 1 ug/mL [3]: 2.12%; Average inhibition ratio (%) of mast cell degranulation at IgETRAP 0.063 ug/mL (0.42 nM; IgE/IgETRAP molar ratio 12.5), anti-DNP IgE 1 ug/mL [3]: 12.4%; Average inhibition ratio (%) of mast cell degranulation at IgETRAP 0.25 ug/mL (1.67 nM; IgE/IgETRAP molar ratio 3.15), anti-DNP IgE 1 ug/mL [3]: 13.8%; Average inhibition ratio (%) of mast cell degranulation at IgETRAP 0.5 ug/mL (3.33 nM; IgE/IgETRAP molar ratio 1.58), anti-DNP IgE 1 ug/mL [3]: 49.4%; Average inhibition ratio (%) of mast cell degranulation at IgETRAP 1 ug/mL (6.67 nM; IgE/IgETRAP molar ratio 0.79), anti-DNP IgE 1 ug/mL [3]: 99.3%; Average inhibition ratio (%) of mast cell degranulation at IgETRAP 2 ug/mL (13.3 nM; IgE/IgETRAP molar ratio 0.40), anti-DNP IgE 1 ug/mL [3]: 99.4%; Average inhibition ratio (%) of mast cell degranulation at IgETRAP 4 ug/mL (26.7 nM; IgE/IgETRAP molar ratio 0.20), anti-DNP IgE 1 ug/mL [3]: 99.8%; Kd (human IgE [4]): 0.215 nM; koff (human IgE [4]): 5.69e-05 s⁻¹; kon (human IgE [4]): 264000 M⁻¹ s⁻¹; fold of dissociation rate (Kd) against omalizumab (human IgE [7]): ~94.5 fold; Comparison of KD [Omalizumab/IgETRAP] (human IgE [8]): ~69 fold; fold change of equilibrium dissociation constant (KD) against omalizumab (printed 'higher'; meant as stronger binding) (human IgE [11]): 22 to 69 fold; fold lower association rate (ka) than omalizumab (human IgE [12]): 1.5 to 2 fold
B2	38	1.9	73	0.388	8.29e-05	214000	
B3	22	2	45	0.672	0.000133	198000	
B4	24	1.7	40	0.621	0.000149	240000	
